Reference: patent US20210396758A1 (AMLO BIOSCIENCES, published 2021)
Values belong to the binder of their own block, whether it stands above or below them. Ends that are not written are not given here.

Assays:
[1] = target: T1, Ambra-1 peptide (synthesized peptide to which anti-Ambra-1 antibodies were raised) (human, not fully specified); test: QC ELISA of the chimeric human/mouse IgG1 antibody on immobilized Ambra-1 peptide conjugates Amb1-TRF and Amb1-BSA; signal over background
T1 construct: Tested in ELISA in native and denatured form; also called Ambra-1 antigen
T1 peptide: CGGSSRGDAAGPRGEPRNR

human Ambra-1 = target: T2, human Ambra-1 (human, UniProt Q9C0C7 1-1298); test: automated immunohistochemistry (Ventana Benchmark XT), chimeric mouse IgG1 format
T2 construct: the protein stood in tissue sections (immunohistochemistry)
T2 sequence: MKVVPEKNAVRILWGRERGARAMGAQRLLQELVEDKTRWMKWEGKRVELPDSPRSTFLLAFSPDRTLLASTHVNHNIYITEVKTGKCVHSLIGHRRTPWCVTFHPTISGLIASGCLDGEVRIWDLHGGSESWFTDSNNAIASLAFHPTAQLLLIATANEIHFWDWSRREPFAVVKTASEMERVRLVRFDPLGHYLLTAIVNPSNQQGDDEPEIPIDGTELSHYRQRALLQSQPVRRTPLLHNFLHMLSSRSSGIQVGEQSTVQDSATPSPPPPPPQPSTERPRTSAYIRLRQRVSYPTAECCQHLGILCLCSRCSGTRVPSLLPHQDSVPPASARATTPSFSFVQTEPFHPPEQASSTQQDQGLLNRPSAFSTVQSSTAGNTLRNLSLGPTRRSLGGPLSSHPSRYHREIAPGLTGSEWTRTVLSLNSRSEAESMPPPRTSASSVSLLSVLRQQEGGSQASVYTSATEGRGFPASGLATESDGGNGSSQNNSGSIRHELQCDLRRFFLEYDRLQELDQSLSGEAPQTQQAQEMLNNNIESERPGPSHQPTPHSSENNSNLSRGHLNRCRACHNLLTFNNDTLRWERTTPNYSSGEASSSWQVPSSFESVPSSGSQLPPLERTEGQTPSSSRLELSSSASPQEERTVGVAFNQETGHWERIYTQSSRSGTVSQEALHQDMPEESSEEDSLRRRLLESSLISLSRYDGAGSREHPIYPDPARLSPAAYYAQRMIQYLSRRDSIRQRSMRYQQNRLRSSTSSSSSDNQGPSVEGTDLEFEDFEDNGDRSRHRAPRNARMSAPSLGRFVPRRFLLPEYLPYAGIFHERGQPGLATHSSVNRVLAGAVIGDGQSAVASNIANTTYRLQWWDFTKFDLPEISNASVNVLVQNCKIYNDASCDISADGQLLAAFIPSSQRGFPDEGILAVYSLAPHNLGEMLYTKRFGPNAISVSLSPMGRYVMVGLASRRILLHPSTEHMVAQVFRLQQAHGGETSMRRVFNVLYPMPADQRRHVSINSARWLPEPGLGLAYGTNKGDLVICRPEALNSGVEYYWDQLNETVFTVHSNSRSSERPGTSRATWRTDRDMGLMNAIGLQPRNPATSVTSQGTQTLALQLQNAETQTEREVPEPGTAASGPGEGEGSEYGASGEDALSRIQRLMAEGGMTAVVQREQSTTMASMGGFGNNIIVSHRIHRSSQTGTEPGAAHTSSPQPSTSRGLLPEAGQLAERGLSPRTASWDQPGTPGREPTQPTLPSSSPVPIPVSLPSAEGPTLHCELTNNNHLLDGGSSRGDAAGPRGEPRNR

[2] = target: T3, N1-CD33-His6 (the ectodomain of human CD33 fused to the N1 domain of the g3p filamentous phage M13) (filamentous phage M13; human, UniProt P20138 18-259); test: QC ELISA of the chimeric human/mouse IgG1 antibody on immobilized control protein; signal over background
T3 construct: extracellular domain; not shown: N1 domain of g3p of filamentous phage M13

[3] = target: T3, N1-CD33-His6 (the ectodomain of human …); test: QC ELISA, purified Fab on immobilized control protein; signal (x-fold) over background
[4] = target: T3, N1-CD33-His6 (the ectodomain of human …); test: QC ELISA of the chimeric human/mouse IgG1 antibody on immobilized control protein; signal over background; remark: listed apart in the source

T3 sequence (P20138 18-259, tags left off): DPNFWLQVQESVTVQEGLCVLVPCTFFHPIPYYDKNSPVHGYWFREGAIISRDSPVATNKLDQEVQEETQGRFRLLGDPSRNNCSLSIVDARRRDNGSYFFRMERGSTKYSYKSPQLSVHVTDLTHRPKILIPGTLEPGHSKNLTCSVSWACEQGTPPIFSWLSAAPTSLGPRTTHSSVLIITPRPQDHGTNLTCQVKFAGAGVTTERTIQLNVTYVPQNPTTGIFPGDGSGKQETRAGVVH

binding result [1]: binds | binding result (human Ambra-1): binds | binding result [2]: no binding
B1: AbD33473 full length chimeric antibody against human Ambra-1 with an IgG1 mouse Fc region (antibody, V domains shown)
VH: EVQLVQSGAEVKKPGESLKISCKGSGYSFSSYWIHWVRQMPGKGLEWMGTIFPSRSYTTYSPSFQGQVTISADKSISTAYLQWSSLKASDTAMYYCARDTPSTALKSPFDYWGQGTLVTVSS
VL: DIVLTQPPSVSGAPGQRVTISCSGSSSNIGYNYVYWYQQLPGTAPKLLIYENNKRPSGVPDRFSGSKSGTSASLAITGLQAEDEADYYCSSWDSHSNSYVFGGGTKLTVLG
notes: also called recombinant monoclonal antibody AbD33473; HuCAL antibody AbD33473

binding result [3]: no binding
B2: HuCAL recombinant monoclonal antibody fragment against human Ambra-1, AbD33473.1, bivalent Fab (Fab-A-FH) (Fab)
heavy: EVQLVQSGAEVKKPGESLKISCKGSGYSFSSYWIHWVRQMPGKGLEWMGTIFPSRSYTTYSPSFQGQVTISADKSISTAYLQWSSLKASDTAMYYCARDTPSTALKSPFDYWGQGTLVTVSSASTKGPSVFPLAPSSKSTSGGTAALGCLVKDYFPEPVTVSWNSGALTSGVHTFPAVLQSSGLYSLSSVVTVPSSSLGTQTYICNVNHKPSNTKVDKKVEPKSRTPEMPVLENRAAQGDITAPGGARRLTGDQTAALRDSLSDKPAKNIILLIGDGMGDSEITAARNYAEGAGGFFKGIDALPLTGQYTHYALNKKTGKPDYVTDSAASATAWSTGVKTYNGALGVDIHEKDHPTILEMAKAAGLATGNVSTAELQDATPAALVAHVTSRKCYGPSATSEKCPGNALEKGGKGSITEQLLNARADVTLGGGAKTFAETATAGEWQGKTLREQAQARGYQLVSDAASLNSVTEANQQKPLLGLFADGNMPVRWLGPKATYHGNIDKPAVTCTPNPQRNDSVPTLAQMTDKAIELLSKNEKGFFLQVEGASIDKQDHAANPCGQIGETVDLDEAVQRALEFAKKEGNTLVIVTADHAHASQIVAPDTKAPGLTQALNTKDGAVMVMSYGNSEEDSQEHTGSQLRIAAYGPHAANVVGLTDQTDLFYTMKAALGLKDYKDDDDKHHHHHH
light: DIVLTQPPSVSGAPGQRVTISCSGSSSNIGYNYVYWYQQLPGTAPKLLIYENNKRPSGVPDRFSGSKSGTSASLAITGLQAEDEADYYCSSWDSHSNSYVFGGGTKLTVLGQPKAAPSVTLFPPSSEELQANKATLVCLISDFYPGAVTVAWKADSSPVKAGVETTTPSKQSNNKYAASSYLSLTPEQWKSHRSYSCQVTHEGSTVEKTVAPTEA
notes: domain: alkaline phosphatase dimerization domain

binding result [4]: no binding
B3: AbD33047 full length chimeric antibody against human Loricrin with an IgG1 mouse Fc region (antibody, V domains shown)
VH: QVQLVQSGAEVKKPGASVKVSCKASGYTFNDYYIHWVRQAPGQGLEWMGVISPNSGKTNYAQKFQGRVTMTRDTSISTAYMELSRLRSEDTAVYYCARDLYPDSSAFDIWGQGTLVTVSS
VL: DIELTQPPSVSVSPGQTASITCSGDNLGDKYAHWYQQKPGQAPVLVIYDDNERPSGIPERFSGSNSGNTATLTISGTQAEDEADYYCQSYDSGNRVFGGGTKLTVLG
notes: also called recombinant monoclonal antibody AbD33047; HuCAL antibody AbD33047
